Laboratory results reported in PMC11224109, “Synthesis and preclinical evaluation of novel ^18F-vancomycin-based tracers for the detection of bacterial infections using positron emission tomography” (European Journal of Nuclear Medicine and Molecular Imaging, 2024).

Key:
[1] = Biodistribution in vivo and PET in healthy mice; settings: in vivo; for tissue uptake at 0.5 h / tissue uptake at 1 h: male, C57BL/6, mouse, 2 MBq, total radioactivity, Biodistribution, healthy male C57BL/6 mice, penile vein injection, gamma counter, mean of n = 3; for tissue uptake at 0.5 h: 30 min; for tissue uptake at 1 h: 60 min
Protocol: All murine experiments were approved by the Animal Care and Use Committee of the University of Groningen under license protocol number 2114768-01-001. In vivo biodistribution was performed in male C57BL/6 mice (age 8 weeks, 25 g). Per tracer, the animals were divided in three groups based on the tracer distribution times (30 min, 60 min, and 90 min). […] Each experimental arm (i.e. time point) consisted of three animals. […] Tracer was administered at t = 0 via penile vein injection (2.0 ± 0.9 MBq in 100 µL 0.9% saline solution, Supplemental Table 2). After tracer administration, the animals were transferred to a Siemens Focus 220 microPET small animal scanner (Siemens, Munich, Germany) and scanned for the designated time, followed by a transmission scan of 10 min for attenuation correction. PET data were normalized and corrected for decay, after which the PET data were reconstructed using OSEM2D-Z1-SC-256. The PET data frames used for reconstruction were: 6 × 10 s, 4 × 30 s, 2 × 60 s, 120 s, 180 s, 4 × 300 s, 3 × 600 s, 1200 s or until the designated scan time was reached, taking into account a 10-min transmission scan following the emission scan. Next, animals were terminated, and organs harvested to assay biodistribution in a calibrated gamma counter (Wizard2, Perkin Elmer, Waltham, United States).

[2] = Distribution coefficient LogD7.4, shake-flask n-octanol/PBS; assay type: physicochemical; settings: shake-flask n-octanol/PBS pH 7.4, 500 µL each, 10 µL tracer in saline, vortexed 30 s, shaken 15 min, gamma counter, mean ± SD
Protocol: The tracer distribution coefficient in n-octanol/PBS pH 7.4 (LogD7.4) was determined using a shake-flask methodology. To an Eppendorf tube containing 500 µL n-octanol and 500 µL PBS, 10 µL tracer solution in saline was added. The vial was vortexed for 30 s and placed on an Eppendorf shaker for 15 min. After incubation, layers were separated by centrifugation (1 min at 10.000 rpm) and a fraction of the n-octanol layer was pipetted off. To minimize contamination of the bottom layer with the n-octanol layer, the bottom PBS layer was collected by puncturing the bottom of the Eppendorf tube with a 22G needle and aspirating a fraction of the PBS layer. Collected fractions were weighted to correct for collected volume and subsequently measured on a calibrated gamma counter and corrected for decay. LogD7.4 was calculated as [drawing 1] .

[3] = Summary of tracer stability in vitro and in vivo
Protocol: Stability of the tracers was determined in PBS and human plasma. In a typical experiment, 1 MBq of radioactivity (10–20 µL) was added to 250 µL of PBS or human plasma. Samples were heated to 37 °C on a shaker and sampled at fixed intervals. For samples containing human plasma, protein was precipitated using two volumes of cold MeCN. Precipitated samples were briefly centrifuged to pellet the insoluble fraction and supernatant was used for stability assessment. Supernatant (1 µL) was loaded on a TLC plate and imaged using BAS-IP MS 2025 E plates (Fujifilm, Tokyo, Japan) on an Amersham Typhoon Biomolecular Imager (GE Healthcare Bio-Sciences Corp, Chicago, United States) equipped with a phosphor imaging stage. [^18F]BODIPY-FL-vancomycin has an Rf of 0.68 (petroleum ether/MeOH 3:1), [^18F]FB-vancomycin has an Rf of 0.66 (2 M NaOAc/MeOH 5:1). For [^18F]PQ-VE1-vancomycin, conditions described in [44] were used.

CC(C)C[C@H](C(=O)N[C@H]1C(=O)N[C@@H](CC(N)=O)C(=O)N[C@H]2C(=O)N[C@H]3C(=O)N[C@H](C(=O)N[C@H](C(=O)O)c4cc(O)cc(O)c4-c4cc3ccc4O)[C@H](O)c3ccc(c(Cl)c3)Oc3cc2cc(c3O[C@@H]2O[C@H](CO)[C@@H](O)[C@H](O)[C@H]2O[C@H]2C[C@](C)(N)[C@H](O)[C@H](C)O2)Oc2ccc(cc2Cl)[C@H]1O)N(C)C(=O)c1ccc(F)cc1 [[^18F]FB-vancomycin]
tissue uptake at 0.5 h ([1]; iv, Bladder): 21.8 %ID/g
tissue uptake at 1 h ([1]; iv, Bladder): 18.5 %ID/g
tissue uptake at 0.5 h ([1]; iv, Bone): 0.06 %ID/g
tissue uptake at 1 h ([1]; iv, Bone): 0.04 %ID/g
tissue uptake at 0.5 h ([1]; iv, Brain): 0.05 %ID/g
tissue uptake at 1 h ([1]; iv, Brain): 0.05 %ID/g
tissue uptake at 0.5 h ([1]; iv, Fat): 0.54 %ID/g
tissue uptake at 1 h ([1]; iv, Fat): 0.26 %ID/g
tissue uptake at 0.5 h ([1]; iv, Heart): 0.11 %ID/g
tissue uptake at 1 h ([1]; iv, Heart): 0.22 %ID/g
tissue uptake at 0.5 h ([1]; iv, Kidneys): 1.01 %ID/g
tissue uptake at 1 h ([1]; iv, Kidneys): 0.45 %ID/g
tissue uptake at 0.5 h ([1]; iv, Large intestine): 0.25 %ID/g
tissue uptake at 1 h ([1]; iv, Large intestine): 0.37 %ID/g
tissue uptake at 0.5 h ([1]; iv, Liver): 0.15 %ID/g
tissue uptake at 1 h ([1]; iv, Liver): 0.1 %ID/g
tissue uptake at 0.5 h ([1]; iv, Lungs): 0.2 %ID/g
tissue uptake at 1 h ([1]; iv, Lungs): 0.14 %ID/g
tissue uptake at 0.5 h ([1]; iv, Muscle): 0.14 %ID/g
tissue uptake at 1 h ([1]; iv, Muscle): 0.12 %ID/g
tissue uptake at 0.5 h ([1]; iv, Plasma): 0.29 %ID/g
tissue uptake at 1 h ([1]; iv, Plasma): 0.15 %ID/g
tissue uptake at 0.5 h ([1]; iv, Small intestine): 0.3 %ID/g
tissue uptake at 1 h ([1]; iv, Small intestine): 0.19 %ID/g
tissue uptake at 0.5 h ([1]; iv, Spleen): 0.14 %ID/g
tissue uptake at 1 h ([1]; iv, Spleen): 0.09 %ID/g
tissue uptake at 0.5 h ([1]; iv, Stomach): 0.1 %ID/g
tissue uptake at 1 h ([1]; iv, Stomach): 0.21 %ID/g
tissue uptake at 0.5 h ([1]; iv, Whole blood): 0.2 %ID/g
tissue uptake at 1 h ([1]; iv, Whole blood): 0.1 %ID/g
Accumulation ([1]; mouse): No accumulation in tissues, only in urine
Clearance ([1]; mouse): Rapid renal clearance
In vivo stability ([1]; mouse, iv): poor in vivo stability
LogD7.4 [2]: -0.96 ± 0.03 (n = 12)
Stability [3]: Rapidly degraded in vitro and in vivo.
